Read-outs that look alike come from different tables or passages of the source.
Key:
Assay in all cases: BLI (Octet HTX)
[1] = target: T1, Recombinant Human DLL3 Protein (amino acids Ala27-Ala479, Cat #9749-DL, R&D Systems) (UniProt Q9NYJ7 27-479)
T1 chain: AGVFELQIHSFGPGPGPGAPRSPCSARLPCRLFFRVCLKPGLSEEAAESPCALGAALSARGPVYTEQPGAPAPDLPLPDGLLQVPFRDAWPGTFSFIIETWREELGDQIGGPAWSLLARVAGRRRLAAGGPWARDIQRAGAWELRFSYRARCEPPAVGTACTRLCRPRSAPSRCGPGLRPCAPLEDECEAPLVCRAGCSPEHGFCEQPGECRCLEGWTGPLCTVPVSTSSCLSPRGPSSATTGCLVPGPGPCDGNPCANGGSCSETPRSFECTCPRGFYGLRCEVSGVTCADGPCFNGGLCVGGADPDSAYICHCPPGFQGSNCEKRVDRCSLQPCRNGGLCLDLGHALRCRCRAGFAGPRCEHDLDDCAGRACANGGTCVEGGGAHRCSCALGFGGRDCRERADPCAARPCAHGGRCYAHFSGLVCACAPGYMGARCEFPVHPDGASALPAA

[2] = target: T1, Recombinant Human DLL3 Protein (amino …)
[3] = target: T1, Recombinant Human DLL3 Protein (amino …)

B1: 6-G23-F (antibody, V domains shown)
VH: QVQLVQSGAEVKKPGASVKVSCKASGYTFTSYYIHWVRQAPGQGLEWMGIIDPSDGSTNYAQKFQGRVTMTRDTSTSTVYMELSSLRSEDTAVYYCARDREYNYYGLDVWGQGTTVTVSS
VL: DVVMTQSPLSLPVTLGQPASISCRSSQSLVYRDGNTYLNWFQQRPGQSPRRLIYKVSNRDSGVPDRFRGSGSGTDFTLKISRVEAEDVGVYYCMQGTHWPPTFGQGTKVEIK
Work on B1 yielded a Kd [1] of 0.16 nM and a Kd [2] of 0.16 nM.

B2: 7-I1-B (antibody, V domains shown)
VH: EVQLVESGGGLVKPGGSLRLSCAASGFTFSNTWMSWVRQAPGKGLEWVGRIKSKSDGGTTDYAAPVKGRFTISRDDSKNTLYLQMNSLKTEDTAVYYCTQYYWNSFDYWGQGTLVTVSS
VL: not shown
B2 was tested, and the Kd [1] was 0.68 nM and the Kd [2] was 0.686 nM.

B3: 2-C8-A (antibody, V domains shown)
VH: EVQLVESGGGLVQPGGSQRLSCAASGFTFSSYWMNWVRQAPGKGLEWVANIKEDGSEKYYVDSVKGRFTISRDNAKNSLYLQMNSLRAEDTAVYYCARDPGWAPFDYWGQGTLVTVSS
VL: DIQMSQSPSSLSASVGDRVTITCRASQGISNYLAWFQQKPGKAPKSLIYAASSLQSGVPSKFSGSGSGTDFTLAISSLQPEDFATYYCQQYNSFPYTFGQGTTLEIK
B3 was tested, and the Kd [1] was 0.668 nM and the Kd [3] was 0.668 nM.

B4: 10-O18-A (antibody, V domains shown)
VH: QVQLQESGPGLVKPSETLSLTCTVSGGSINSYYWSWIRQPPGKGLEWIGYIFYSGITNYNPSLKSRVTISLDTSKNQFSLKLSSVTAADTAVYYCARIGVAGFYFDYWGQGTLVTVSS
VL: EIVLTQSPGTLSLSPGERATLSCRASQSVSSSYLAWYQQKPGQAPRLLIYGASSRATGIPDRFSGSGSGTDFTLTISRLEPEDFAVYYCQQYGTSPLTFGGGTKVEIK
B4 was tested, and the Kd [1] was 0.62 nM and the Kd [3] was 0.602 nM.
